# Data published in patent publication US11419921B2, “Methods of treating neurological disorders” (EnClear Therapies, Inc., priority 2018, dated 2022).
# B1: Clostripain + DTT (protein)
# chain: NKNQKVTIMYYCDADNNLEGSLLNDIEEMKTGYKDSPNLNLIALVDRSPRYSSDEKVLGEDFSDTRLYKIEHNKANRLDGKNEFPEISTTSKYEANMGDPEVLKKFIDYCKSNYEADKYVLIMANHGGGAREKSNPRLNRAICWDDSNLDKNGEADCLYMGEISDHLTEKQSVDLLAFDACLMGTAEVAYQYRPGNGGFSADTLVASSPVVWGPGFKYDKIFDRIKAGGGTNNEDDLTLGGKEQNFDPATITNEQLGALFVEEQRDSTHANGRYDQHLSFYDLKKAESVKRAIDNLAVNLSNENKKSEIEKLRGSGIHTDLMHYFDEYSEGEWVEYPYFDVYDLCEKINKSENFSSKTKDLASNAMNKLNEMIVYSFGDPSNNFKEGKNGLSIFLPNGDKKYSTYYTSTKIPHWTMQSWYNSIDTVKYGLNPYGKLSWCKDGQDPEINKVGNWFELLDSWFDKTNDVTGGVNHYQW
# B2: TPCK-trypsin: TPCK-trypsin; ThermoFisher Cat #20233 (protein, UniProt P00760 24-246, looked up)
# Serine protease 1: IVGGYTCGANTVPYQVSLNSGYHFCGGSLINSQWVVSAAHCYKSGIQVRLGEDNINVVEGNEQFISASKSIVHPSYNSNTLNNDIMLIKLKSAASLNSRVASISLPTSCASAGTQCLISGWGNTKSSGTSYPDVLKCLKAPILSDSSCKSAYPGQITSNMFCAGYLEGGKDSCQGDSGGPVVCSGKLQGIVSWGSGCAQKNKPGVYTKVCNYVSWIKQTIASN
# modifications: TPCK-treated
# What was measured:
# (GR)10 [1] = test: Cleavage of (GR)10 by enzymes in solution (PBS with CaCl2 and MgCl2), LC/MS of GR repeats; assay type: biochemical; settings: in solution, activated with 2.5 mM DTT
# Experimental: • (GR)10 dipeptide (also (GR)8, (GR)6, (GR)4, (GR)2) were synthetized by solid-phase synthesis by CanPeptide; All peptides are uncapped and supplied lyophilized with TFA as counter ions. Purity was always above 95%. • Buffer: PBS buffer containing CaCl2 and MgCl2. • Stock solution of enzyme (e.g., 10 mg/mL) (prepared per manufacturer instructions) in PBS. Activators added as necessary. • Working solution of protein of the desired concentration (e.g., 100 μg/mL) prepared immediately before use by diluting the stock solution (e.g., 5 μL of 10 mg/mL stock solution) in PBS buffer (e.g., in 495 μL of PBS). Exemplary Procedure Using 50 μM Concentrations of (GR)10
# 25 μL of a 100 μM solution of (GR)10 was added to each well of a 96-well plate. 25 μL of a solution of enzyme (two times the desired final enzyme concentration) was added, and the plates were incubated at room temperature. At the specified time points (5 minutes, 10 minutes, 30 minutes, 60 minutes, and 180 minutes) 2.5 μL of a 10% TFA solution were added to stop the reaction. For the time 0 min well, the TFA was added to the well before addition of the enzyme. After last time point, all samples were further diluted with 150 μL of dilution solution. The quenched reaction mixtures were analyzed by LC/MS to determine the concentration of GR repeats of different lengths.
# The chromatography and mass spectrometry conditions utilized are shown in Table 2 and Table 3, respectively.
# (GR)10 [2] = test: (GR)10 digestion with immobilized proteases (NHS-activated agarose resin) in PBS; assay type: biochemical; settings: immobilized
# Experimental: (§1) Protease solutions were prepared at 2 mg/mL in sterile PBS with calcium, magnesium and 200 μL ([…]) were applied to 100 μL of pre-washed NHS-activated agarose resin in 0.8 mL centrifuge columns. Reactions were left 1.5 hour at room temperature with end-to-end mixing, after which resins were washed with 12 resin volumes of PBS. Unreacted sites were blocked with 500 μL of 1M ethanolamine for 15 minutes at room temperature and resins were further washed with 24 resin volumes. Resins were stored at 4 degrees in 500 μL of PBS containing 0.05% sodium azide as preservative.
# 110 μL of 50 μM (GR)10 dipeptide repeats prepared in PBS were added to each immobilized protease and incubated 5 minutes at room temperature with end-to-end mixing. Columns were spun down 1 minute at 1,000 Xg to recover digested GR dipeptides. Columns were washed with 110 μL of PBS to increase (GR)10 recovery. This procedure was repeated with 60 minutes digestion time. 100 μL of each samples were transferred to a new tube and 5 μL of 10% TFA followed by 300 μL of Dilution Solution were added. The reaction mixtures were analyzed by LC/MS to determine the concentration of GR repeats of different lengths.
# (GR)10 [3] = test: (GR)10 digestion with immobilized proteases in human cerebrospinal fluid (CSF); assay type: biochemical; settings: immobilized enzyme
# Experimental: as §1
# 200 μM of (GR)10 were diluted in human cerebrospinal fluid (CSF) and 400 μL were applied to each immobilized proteases. The reaction was incubated 5 minutes at room temperature with end-to-end mixing. Columns were spun down 1 minute at 1,000 Xg to recover digested GR dipeptides. Columns were washed with 12 resin volumes of PBS. The procedure was repeated with 60 minutes digestion time. 100 μL of each samples were transferred to a clean tube, flash-frozen and subsequently used for LC/MS quantification of GR repeats of different lengths. The remaining 300 μL of each samples were flash-frozen and used to assess neuron toxicity.
# (GR)10 was digested with exemplary immobilized enzymes as described above in the subsection titled “(GR)10 digestion with immobilized proteases in CSF” of Example 3. Clostripain experiments were conducted with and without DTT activation (no DTT during digestion). The results obtained after 5 and 60 minutes of reaction time are presented in Table 25 and shown in FIG. 5 (commercial and in-house immobilized trypsin), FIG. 6 (immobilized elastase, FIG. 7A (immobilized clostripain without DTT) and FIG. 7 (immobilized clostripain with 2.5 mM DTT).
# [4] = 1 TAME unit = 1 μmole TAME hydrolyzed/min at pH 8.2, 25° C.; cited from earlier work
# [5] = 2.5 mM DTT, resin wash from 5 min reaction
# [6] = 2.5 mM DTT, resin wash from 60 min reaction
# [7] = activated with 2.5 mM DTT, 5 min reaction
# [8] = activated with 2.5 mM DTT, 60 min reaction
molecule,measurement,setting,value
B1,(GR)1 (normalized to GR concentration),(GR)10 [1]; 5 min reaction,86.8 µM
same,(GR)2 (normalized to GR concentration),(GR)10 [1]; 5 min reaction,113.6 µM
same,(GR)3 (normalized to GR concentration),(GR)10 [1]; 5 min reaction,40.5 µM
same,(GR)4 (normalized to GR concentration),(GR)10 [1]; 5 min reaction,27.2 µM
same,(GR)5 (normalized to GR concentration),(GR)10 [1]; 5 min reaction,12.1 µM
same,(GR)6 (normalized to GR concentration),(GR)10 [1]; 5 min reaction,7.3 µM
same,(GR)8 (normalized to GR concentration),(GR)10 [1]; 5 min reaction,0.0 µM
same,(GR)10 (normalized to GR concentration),(GR)10 [1]; 5 min reaction,5.7 µM
same,(GR)1 (normalized to GR concentration),(GR)10 [1]; 60 min reaction,387.0 µM
same,(GR)2 (normalized to GR concentration),(GR)10 [1]; 60 min reaction,0.0 µM
same,(GR)3 (normalized to GR concentration),(GR)10 [1]; 60 min reaction,0.0 µM
same,(GR)4 (normalized to GR concentration),(GR)10 [1]; 60 min reaction,0.0 µM
same,(GR)5 (normalized to GR concentration),(GR)10 [1]; 60 min reaction,0.0 µM
same,(GR)6 (normalized to GR concentration),(GR)10 [1]; 60 min reaction,0.0 µM
same,(GR)8 (normalized to GR concentration),(GR)10 [1]; 60 min reaction,0.0 µM
same,(GR)10 (normalized to GR concentration),(GR)10 [1]; 60 min reaction,0.0 µM
same,(GR)1 (normalized to GR concentration),(GR)10 [2]; [5],99.1 µM
same,(GR)2 (normalized to GR concentration),(GR)10 [2]; [5],0.0 µM
same,(GR)3 (normalized to GR concentration),(GR)10 [2]; [5],0.0 µM
same,(GR)4 (normalized to GR concentration),(GR)10 [2]; [5],0.0 µM
same,(GR)5 (normalized to GR concentration),(GR)10 [2]; [5],0.0 µM
same,(GR)6 (normalized to GR concentration),(GR)10 [2]; [5],0.0 µM
same,(GR)8 (normalized to GR concentration),(GR)10 [2]; [5],0.0 µM
same,(GR)10 (normalized to GR concentration),(GR)10 [2]; [5],0.0 µM
same,(GR)1 (normalized to GR concentration),(GR)10 [2]; [6],125.6 µM
same,(GR)2 (normalized to GR concentration),(GR)10 [2]; [6],0.0 µM
same,(GR)3 (normalized to GR concentration),(GR)10 [2]; [6],0.0 µM
same,(GR)4 (normalized to GR concentration),(GR)10 [2]; [6],0.0 µM
same,(GR)5 (normalized to GR concentration),(GR)10 [2]; [6],0.0 µM
same,(GR)6 (normalized to GR concentration),(GR)10 [2]; [6],0.0 µM
same,(GR)8 (normalized to GR concentration),(GR)10 [2]; [6],0.0 µM
same,(GR)10 (normalized to GR concentration),(GR)10 [2]; [6],0.0 µM
same,(GR)1 (normalized to GR concentration),(GR)10 [2]; [7],299.3 µM
same,(GR)2 (normalized to GR concentration),(GR)10 [2]; [7],0.0 µM
same,(GR)3 (normalized to GR concentration),(GR)10 [2]; [7],0.0 µM
same,(GR)4 (normalized to GR concentration),(GR)10 [2]; [7],0.0 µM
same,(GR)5 (normalized to GR concentration),(GR)10 [2]; [7],0.0 µM
same,(GR)6 (normalized to GR concentration),(GR)10 [2]; [7],0.0 µM
same,(GR)8 (normalized to GR concentration),(GR)10 [2]; [7],0.0 µM
same,(GR)10 (normalized to GR concentration),(GR)10 [2]; [7],0.0 µM
same,(GR)1 (normalized to GR concentration),(GR)10 [2]; [8],335.6 µM
same,(GR)2 (normalized to GR concentration),(GR)10 [2]; [8],0.0 µM
same,(GR)3 (normalized to GR concentration),(GR)10 [2]; [8],0.0 µM
same,(GR)4 (normalized to GR concentration),(GR)10 [2]; [8],0.0 µM
same,(GR)5 (normalized to GR concentration),(GR)10 [2]; [8],0.0 µM
same,(GR)6 (normalized to GR concentration),(GR)10 [2]; [8],0.0 µM
same,(GR)8 (normalized to GR concentration),(GR)10 [2]; [8],0.0 µM
same,(GR)10 (normalized to GR concentration),(GR)10 [2]; [8],0.0 µM
same,(GR)1 (normalized uM),(GR)10 [3]; 5 min reaction,79.8 µM
same,(GR)2 (normalized uM),(GR)10 [3]; 5 min reaction,83.2 µM
same,(GR)3 (normalized uM),(GR)10 [3]; 5 min reaction,70.5 µM
same,(GR)4 (normalized uM),(GR)10 [3]; 5 min reaction,90.8 µM
same,(GR)5 (normalized uM),(GR)10 [3]; 5 min reaction,90.5 µM
same,(GR)6 (normalized uM),(GR)10 [3]; 5 min reaction,86.4 µM
same,(GR)8 (normalized uM),(GR)10 [3]; 5 min reaction,64.8 µM
same,(GR)10 (normalized uM),(GR)10 [3]; 5 min reaction,58 µM
same,(GR)1 (normalized uM),(GR)10 [3]; 60 min reaction,458.3 µM
same,(GR)2 (normalized uM),(GR)10 [3]; 60 min reaction,409.2 µM
same,(GR)3 (normalized uM),(GR)10 [3]; 60 min reaction,85.5 µM
same,(GR)4 (normalized uM),(GR)10 [3]; 60 min reaction,21.2 µM
same,(GR)5 (normalized uM),(GR)10 [3]; 60 min reaction,3 µM
same,(GR)6 (normalized uM),(GR)10 [3]; 60 min reaction,0 µM
same,(GR)8 (normalized uM),(GR)10 [3]; 60 min reaction,0 µM
same,(GR)10 (normalized uM),(GR)10 [3]; 60 min reaction,0 µM
B2,Activity,[4],308 TAME units/mg of protein
